{"source": "paper PMC7858651", "about": "“Modulation of Increased mGluR1 Signaling by RGS8 Protects Purkinje Cells From Dendritic Reduction and Could Be a Common Mechanism in Diverse Forms of Spinocerebellar Ataxia” (Frontiers in Cell and Developmental Biology, 2020)", "key": {"wild-type PKCγ-tGFP": {"molecular_target": "T1, wild-type PKCγ-tGFP (UniProt P05129 1-697)", "T1 construct": "Protein Kinase C gamma (PKCγ), wild type; plasmid pCMV-PKCγ-tGFP, a gift (Shimobayashi and Kapfhammer, 2017); also called WT PKCγ; source: HEK293T, transfected (pCMV-PKCγ-tGFP), in lysate", "assay": "co-IP; HEK293T cells expressing mGluR1, transfected with PKCγ-tGFP, PKCγ(S361G)-tGFP or tGFP alone; tGFP trap agarose beads (Chromotek); IPs blotted with anti-mGluR1 and anti-tGFP; amounts quantified and normalised to wild-type PKCγ-tGFP", "conditions": "partners not purified"}, "PKCγ(S361G)-tGFP": {"molecular_target": "T2, PKCγ(S361G)-tGFP (human, UniProt P05129 1-697, S361G)", "T2 construct": "Protein Kinase C gamma (PKCγ) with the SCA14-associated human mutation S361G; plasmid pCMV-PKCγ(S361G)-tGFP, a gift (Shimobayashi and Kapfhammer, 2017); also called mutated PKCγ(S361G); mutant PKCγ(S361G); source: HEK293T, transfected (pCMV-PKCγ(S361G)-tGFP), in lysate", "assay": "co-IP; HEK293T cells expressing mGluR1, transfected with PKCγ-tGFP, PKCγ(S361G)-tGFP or tGFP alone; tGFP trap agarose beads (Chromotek); IPs blotted with anti-mGluR1 and anti-tGFP; amounts quantified and normalised to wild-type PKCγ-tGFP", "conditions": "partners not purified"}}}
{"binder": "metabotropic glutamate receptor 1 (mGluR1) (receptor, UniProt P97772 21-1199, looked up, metabotropic glutamate receptor 1 (mGluR1), expressed from the vector pCMV-mGluR1 bought from Origene; source: HEK293T, transfected (pCMV-mGluR1, Origene), in lysate) RMPDRKVLLAGASSQRSVARMDGDVIIGALFSVHHQPPAEKVPERKCGEIREQYGIQRVEAMFHTLDKINADPVLLPNITLGSEIRDSCWHSSVALEQSIEFIRDSLISIRDEKDGLNRCLPDGQTLPPGRTKKPIAGVIGPGSSSVAIQVQNLLQLFDIPQIAYSATSIDLSDKTLYKYFLRVVPSDTLQARAMLDIVKRYNWTYVSAVHTEGNYGESGMDAFKELAAQEGLCIAHSDKIYSNAGEKSFDRLLRKLRERLPKARVVVCFCEGMTVRGLLSAMRRLGVVGEFSLIGSDGWADRDEVIEGYEVEANGGITIKLQSPEVRSFDDYFLKLRLDTNTRNPWFPEFWQHRFQCRLPGHLLENPNFKKVCTGNESLEENYVQDSKMGFVINAIYAMAHGLQNMHHALCPGYVGLCDAMKPIDGRKLLDFLIKSSFVGVSGEEVWFDEKGDAPGRYDIMNLQYTEANRYDYVHVGTWHEGVLNIDDYKIQMNKSGMVRSVCSEPCLKGQIKVIRKGEVSCCWICTACKENEFVQDEFTCRACDLGWWPNAELTGCEPITIRYLEWSDIESIIAIAFSCLGILVTLFVTLIFVLYRDTPVVKSSSRELCYIILAGIFLGYVCPFTLIAKPTTTSCYLQRLLVGLSSAMCYSALVTKTNRIARILAGSKKKICTRKPRFMSAWAQVIIASILISVQLTLVVTLIIMEPPMPILSYPSIKEVYLICNTSNLGVVAPVGYNGLLIMSCTYYAFKTRNVPANFNEAKYIAFTMYTTCIIWLAFVPIYFGSNYKIITTCFAVSLSVTVALGCMFTPKMYIIIAKPERNVRSAFTTSDVVRMHVGDGKLPCRSNTFLNIFRRKKPGAGNANSNGKSVSWSEPGGRQAPKGQHVWQRLSVHVKTNETACNQTAVIKPLTKSYQGSGKSLTFSDASTKTLYNVEEEDNTPSTHFSPPSSPSMVVHRRGPPVATTPPLPPHLSAEETPLFLADSVIPKGLPPPLPQQQQQPPPQPPPQQPKSLMDQLQGVVTNFGSGIPDFHAVLAGPGTPGNGLRSLYPPPPPPQHLQMLPLQLSTFREEPISPPGEDDDDDSSERFKLLQEFVYEREGNTEEDDLEEEEDLPAASKLTPEDSPALTPPSPFRDSVASGSSVPSSPVSESVLCTPPNVTYASVILRDYKQSSSTL", "values": [{"measurement": "relative amount bound, normalised to wild-type PKCγ-tGFP", "setting": "wild-type PKCγ-tGFP", "value": "1 relative to wild-type PKCγ-tGFP"}, {"measurement": "relative amount bound, normalised to wild-type PKCγ-tGFP", "setting": "PKCγ(S361G)-tGFP", "value": "1.26 relative to wild-type PKCγ-tGFP"}]}
